The record followed here is paper PMC9040721.

Assay [1] deals with recombinant full-length TRP120, His-tagged (rTRP120-FL) (E. chaffeensis) (UniProt Q2GI62). Put plainly: SPR; Biacore T100, NTA sensor chip; His-tagged TRP120-FL, TRP120-TR or TRX (0.1 uM) immobilised; Fc-tagged Notch-1 LBR as analyte, 2-fold dilutions 800 nM to 25 nM; 25 C; 100 mM sodium phosphate pH 7.4, 400 mM NaCl, 40 uM EDTA; 1:1 Langmuir model.
Assay [2] concerns the target recombinant TRP120 tandem repeat domain, His-tagged (rTRP120-TR) (E. chaffeensis) (UniProt Q2GI62). Described as above.

“human rNotch-1 Fc Chimera Protein, CF (R&D Systems); Fc-tagged Notch-1 ligand-binding region (LBR) (from UniProt P46531 19-2555) (Fc fusion)”: the results for the Kd in assay [1] and in assay [2] were 100 nM and 120 nM, respectively.
